In PMC7380666:

Test: purification, SEC and SDS-PAGE
Details: glycan lost; control: wild-type mCD98hcED

B1: mCD98hcED (murine CD98hc extracellular domain): N385D/T401A (protein)
parent chain: MSQDTEVDMKDVELNELEPEKQPMNAADGAAAGEKNGLVKIKVAEDETEAGVKFTGLSKEELLKVAGSPGWVRTRWALLLLFWLGWLGMLAGAVVIIVRAPRCRELPVQRWWHKGALYRIGDLQAFVGRDAGGIAGLKSHLEYLSTLKVKGLVLGPIHKNQKDEINETDLKQINPTLGSQEDFKDLLQSAKKKSIHIILDLTPNYQGQNAWFLPAQADIVATKMKEALSSWLQDGVDGFQFRDVGKLMNAPLYLAEWQNITKNLSEDRLLIAGTESSDLQQIVNILESTSDLLLTSSYLSNSTFTGERTESLVTRFLNATGSQWCSWSVSQAGLLADFIPDHLLRLYQLLLFTLPGTPVFSYGDELGLQGALPGQPAKAPLMPWNESSIFHIPRPVSLNMTVKGQNEDPGSLLTQFRRLSDLRGKERSLLHGDFHALSSSPDLFSYIRHWDQNERYLVVLNFRDSGRSARLGASNLPAGISLPASAKLLLSTDSARQSREEDTSLKLENLSLNPYEGLLLQFPFVA
For B1, the stability_or_folding was “no change”.
